For one substance, stoichiometry N results are on record in paper PMC8060857.

The target of the test is HR-C1 peptide (SARS-CoV (Urbani strain)) (UniProt P59594). In words: SDS-PAGE of samples not heated.

As to “HR-C1 peptide (from UniProt P59594 1147-1185)”, the stoichiometry N (commonly the number of molecules, sites or subunits per partner or assembly) is 3.
